In the DeepSol protein solubility set:

Assay: soluble on expression in E. coli; label from the status in PepcDB or PDB records

Row | Sequence | soluble on expression in E. coli
1 | MSFKDPPTLQQLARRSLLKDEALTISALPNLPVQLFPPLFKDAFTSRQRKILSLMVATWPFPVLPVGALCGIDHLETLKAVLDGLDLLMSQKDRPSRWNLQVLDLRDAHQDFWDGWAGLLHEVCSQDVFGKNQPVGNHPIPGGKQTISIKMNLSLKYCRRHSHCENLNYLYYWAKQRKDVIQVIFEKLEFTGKHCLRLKLWRLLKLSFVASIQELTIKSIHWDIYNLALIASCLGQMKNLQKLILMNIRRPSSLTDLQEARIITEIFSEFSKLHKLQHLYVNDVYFLKERLDLMLRCFERPLETLTITYCKLSESDMRYLSQCPSIHQLKYLDMSYTTFKPSSHRFLGFLGSLLERLTATLQTLKLECFHLTDSRIRDLLPGLSQCSQLTEVDFVENKFSMVSLKTLLQHTANLTQLTLEKYPAPDEVYDDSLCVIPDRFVQLCSELMNTLKGVRQPKQVYFESTIYSPNFEYLVYNLEGMVSSEPLRRRGRGMVIYISG | not soluble
2 | MIMAANEKEMRIKIIKDGPYRVTGGVPLLEQVIVTDDDGHTRDLIDIKEYPRREAYILCRCGSSENKPFCDGAHRKVGFDGSETASRTPYLEKAETFEGPDLKLTDVYELCDHSRFCQRSGGIRDLIQKSDDPEARQTAIEEAMICPSGRLVLWDKKTGKPFEKEFDPSIILVHDKQKGCEGPLWVRGGVPIESADGSMYEPRNRVTLCRCGKSENKPYCDGSHWMNSQQKLEFRKKWGLELEHHHHHH | not soluble
3 | MTTSQMIADFTTLAIQAGGWMELDRLYLQNRLLSMIGEQELGEVDIRPVATPAADLAEQLCQVASANQLVKTEQQKEQFMVQLMDLLTPPPSVVNAFFAQHYAKEPQEATEYFYQLCQKNGTVIEQEEPVVFSTVYGDFLANKVHSEASKATLSAQSYPRCEWCMATEGYQGSQQFPATTNHRVIRMNLDGESWGFSFVKQAQYQQQGVIAFEKHQSAKRSIKTFQQLLKIVEVFPHYFAGIDADFEQNEHVYYQTGLQQFPLAEASISEYVELANYPLINAGMVNWPVETFRLEGPNASEVAQAANDIFEQWQMLKLPTDEIQIVARRKELLYVMDLIFSRPQAKPSLTLAEVQGLTTWNNQKTQALETVASAYQQRLKEASAFAETSEGKAAFLAMVAPVTH | not soluble
4 | MLFFLIFLGLMATASAKAGRCNEGDQDAHFDSNKFWKCEGGRWIVVTCQINYFYDATTGFCYLSRFPTTRPYPPPFPTRPRPTQGHRCYPGTRIPYPHDHTMFLECSTDGTEYIKRYCQPDAVFVQRENMCVAIQTTYRPTRTWPTTTTTPYYGACKESAGHDGYKPDVYNCKNFYQCASGLWTQRSCGEGTIWDQHKLTCDHNRGQCRPTSPTVQPTYQPTWRPTAYPPNEVKK | soluble
5 | MSLGYLEAAPYGINAPFAWEVQGGKGSGITFVDMEYGWLLNHEDLVHQNIELMSGINIDQHVGHGTSVLGIVSSEDNEVGNIGIAPKAKAKVISQIRDNGQYNTADAILSAVNQLEAGDVLLLEAQASFDGYGDKYLPVEVQPDIFDAIRAGTDKGVVIIEAGANGWNDLDQFKDRNGKQILNRNSKDFKDSGAIMVGAGSSSFPHERMWFSNYGSRIDVYGWGENVDTTTAEQSRSAVNLYTSSFSGTSSASPIIAGAATLVQSIAKENLGQPYRPSELRAILSNENTGTKSKDPYADQIGVLPDLKSILVNLGYGQRKPNGGNELQVTENEPNNERIQANKVNFHTPMKGTLHNSDRVDVFTFQMDSPENITISLLNEQNIGMTWVLHHESDLNNYVAYGENEGNVVKGTYHAKPGKYYLYVYKYENKDGSYVLNIKEGHHHHHH | soluble
6 | MGSDKIHHHHHHMLQPFLASADTFTQQHFANRHAILLKYPQSSAVTFAAAVWENSFHANALYFDVVGDVAWLPQLLEDLRQLADHHDRLQYSSYAAQSAVITQLQAKHFRAFRRTAMSDYRKVVATPEADVRSRSQLTSAQWHDVVQMSFANYVAAHADNPVTFNHATFEQQLAEAEDTQPSFLVENQQVQAYVFWFEDEPGALTSAWLGGQQFADIRRLLQTALFQVQARYSVVNGEFDDTDIHAWTVYQQLALPDPNPLISWQLLLDATRMP | not soluble
7 | DKPVLKDSMRLFEQLGRVKSRSMFGGFGIFVDETMFALVVNDTLHIRADDATIEKYKQQGYEPYVYKKRGFPVVTKYYALPEDCWSHPDSILNEVRAALEVAKAERETQAQAK | not soluble
8 | MVASSCLSMNDHHLLYQNISQDLDLGALLSSEVIQSLWGGYGELVRLIFAKRSVIVKHVKLPKPSEHPRGWNTDRSHQRKLHSYQVEVSWYAHFSGVMDSHCRVPQGLKTFQSENEWLIVMEDLAEAGFPKVITDAKLEHLRACLTWLANFHARYIGVCSDKLWHTGTYWHLATRPDELEALQDTELKKAAQLIDQTLSQAKFKTLVHGDAKLANFCFEQDELSVAAVDFQYVGHGCAMKDVALFMSSAVKPERCAEMEVWVLDTYFAKLQQALMVYQPNLDPDEVEREWRPLFAVAWADFQRFVKGWSPDHWKINPYTEALTRRALAYLRK | not soluble
9 | MGSDKIHHHHHHMTERIDFTKSEQYTLSIRLSADGFSFSIYNPLTDNDFCFVPHPVNTGYSMTANLKDMLTKTEALKYPYKRVNILYDSPRFTPVPLELFEDEQMDTIFYHNFPKAKGNNEIVLCNVLGRSNVVILFAMDKHTHLLLTEHFPTARFFSTASPLTEYFARKSRLGNSRKLYTYIREQQMEVFCFDKGNLLLINSFPCKQTTDRVYYLLYVWQQLNYNQERDELHLTGILKDKEELLKELRNYLRQVFVISPKAEFNRSEISKIEEIPFDMQTLLLCE | not soluble
10 | GMSIVGNVENLINGVGELWNKYVKHEFILKMRDGSLPLDIFRYYLIQDGKYVEDMLRALLIASSKGPIDKVTKILNLVFSSRDKGLETHGKLYSKLDISRDVIVKTGYNLINYAYTRHLYYYANLDWNKFLVAWTPCMFGYSIVGDYVIDSPNEVYKTWASFYASTEYKKRIEAILYALDEVSITEDLLNIFINSVRFEIGFWDASLRKDPTVY | soluble
11 | MHVFYSEERRGNLLILREGEVKHFRVRRIEKDEEFGVIHEGKIYVCKVRREDKREISCEIVEELETKLPPKDITLYQSVTVDLKTMDTIVRQATELGVLTFVPIISERSFQKEEAILKKTEKWKRIVIEAMKQSRRPIPMEIKKPVRLSDLIPESEENIILDNFYEGVKPKDVNLEAKTYSVVVGPEGGFSKRESQILREKGFKSVLLEPYTLRTETAVVSIVSILMNFLEHHHHHH | soluble
12 | MGSDKIHHHHHHMKSLIHCLFLIPLFFVQAHAEVTITLPDSAEPLLLNGKDITSHQLISQNGPQQLVFNARASYREFGQQKRFVSETLIVTFSGENNHYRVSLPKISSPKSAEKFNDVPQIGLTDTQGNKVAYKIDKLLKDGIQIGRNYSEEIKAYNIGQGVAAIAINQPVQMAPSTSSSASSGAASPAATSTALAAQQTTAPQGAQPVGQPTSQPNTQPVSQTGTPRRDQINVGQMLDFWYEQADEATREAFKKRIGLIEQAQRDGH | not soluble
13 | MGSDKIHHHHHHMKQIGIIGCGWFGLPLAQALKQLGHKVIGTKRSIEGCEQLASLGITACPLDLNDDIFYNEAFANNTFANNINELLECQVLVINIPPGLRKKAGKAESRYLEQLSNLVHFIGPRGYQKLVFISTTGVYPAGDDAELPLSEADAKAHNDASEILLNAEALFAPMDNSCILRFAGLVGPNRHPGRFFAGKTGISGANVAVNLVHLDDCIGAVIKVINADKTAPVYNIVAPEHPSRGEFYPLATTHLGLVAPVFNQEVMPTKVISGALICQQLGFIYQYPDPLKMLYAC | not soluble
14 | MGSSHHHHHHSSGLVPRGSHMLKFDVNTSAVQVLIEHIGNLDRAYEFAERCNEPAVWSQLAKAQLQKGMVKEAIDSYIKADDPSSYMEVVQAANTSGNWEELVKYLQMARKKARESYVETELIFALAKTNRLAELEEFINGPNNAHIQQVGDRCYDEKMYDAAKLLYNNVSNFGRLASTLVHLGEYQAAVDGARKANSTRTWKEVCFACVDGKEFRLAQMCGLHIVVHADELEELINYYQDRGYFEELITMLEAALGLERAHMGMFTELAILYSKFKPQKMREHLELFWSRVNIPKVLRAAEQAHLWAELVFLYDKYEEYDNAIITMMNHPTDAWKEGQFKDIITKVANVELYYRAIQFYLEFKPLLLNDLLMVLSPRLDHTRAVNYFSKVKQLPLVKPYLRSVQNHNNKSVNESLNNLFITEEDYQALRTSIDAYDNFDNISLAQRLEKHELIEFRRIAAYLFKGNNRWKQSVELCKKDSLYKDAMQYASESKDTELAEELLQWFLQEEKRECFGACLFTCYDLLRPDVVLETAWRHNIMDFAMPYFIQVMKEYLTKVDKLDASESLRKEEEQATETQPIVYGQPQLMLTAGPSVAVPPQAPFGYGYTAPAYGQPQPGFGYSM | soluble
